# Measured values published in the Human Domainome abundance scans (Beltran et al. 2025).
# ± gives the uncertainty stated by the source.
# B1: Tumor protein p73, residues 487 to 549; numbered along this chain, O15350 (parent)
# chain: YHADPSLVSFLTGLGCPNCIEYFTSQGLQSIYHLQNLTIEDLGALKIPEQYRMTIWRGLQDLK
# Variants of: B1
# Assay: abundance fitness (aPCA) (normalised: wild type 0, dead -1); higher = more abundant; growth selection in yeast, the domain comes from the species named
# Conditions: Homo sapiens
row,Variant,abundance fitness
1,YHADPSLVSFLTGLGCPNCIEYFTSQGLQSIYHLQNLTIEDLGADKIPEQYRMTIWRGLQDLK [L45D],-0.609 ± 0.15
2,YHADPSLVSFLTGLGCPNCIEYFTSQGLQSIYHLQNLTIEDLGAEKIPEQYRMTIWRGLQDLK [L45E],-0.553 ± 0.07
3,YHADPSLVSFLTGLGCPNCIEYFTSQGLQSIYHLQNLTIEDLGAGKIPEQYRMTIWRGLQDLK [L45G],-0.517 ± 0.046
4,YHADPSLVSFLTGLGCPNCIEYFTSQGLQSIYHLQNLTIEDLGAHKIPEQYRMTIWRGLQDLK [L45H],-0.45 ± 0.15
5,YHADPSLVSFLTGLGCPNCIEYFTSQGLQSIYHLQNLTIEDLGAIKIPEQYRMTIWRGLQDLK [L45I],0.067 ± 0.076
6,YHADPSLVSFLTGLGCPNCIEYFTSQGLQSIYHLQNLTIEDLGAKKIPEQYRMTIWRGLQDLK [L45K],-0.216 ± 0.076
7,YHADPSLVSFLTGLGCPNCIEYFTSQGLQSIYHLQNLTIEDLGAMKIPEQYRMTIWRGLQDLK [L45M],0.023 ± 0.038
8,YHADPSLVSFLTGLGCPNCIEYFTSQGLQSIYHLQNLTIEDLGANKIPEQYRMTIWRGLQDLK [L45N],-0.224 ± 0.091
9,YHADPSLVSFLTGLGCPNCIEYFTSQGLQSIYHLQNLTIEDLGAQKIPEQYRMTIWRGLQDLK [L45Q],-0.518 ± 0.083
10,YHADPSLVSFLTGLGCPNCIEYFTSQGLQSIYHLQNLTIEDLGARKIPEQYRMTIWRGLQDLK [L45R],-0.241 ± 0.032
11,YHADPSLVSFLTGLGCPNCIEYFTSQGLQSIYHLQNLTIEDLGASKIPEQYRMTIWRGLQDLK [L45S],-0.272 ± 0.04
12,YHADPSLVSFLTGLGCPNCIEYFTSQGLQSIYHLQNLTIEDLGATKIPEQYRMTIWRGLQDLK [L45T],-0.076 ± 0.039
13,YHADPSLVSFLTGLGCPNCIEYFTSQGLQSIYHLQNLTIEDLGAWKIPEQYRMTIWRGLQDLK [L45W],-0.345 ± 0.047
14,YHADPSLVSFLTGLGCPNCIEYFTSQGLQSIYHLQNLTIEDLGAYKIPEQYRMTIWRGLQDLK [L45Y],0.04 ± 0.1
15,YHADPSLVSFLTGLGCPNCIEYFTSQGLQSIYHLQNLTIEDLGALCIPEQYRMTIWRGLQDLK [K46C],-0.08 ± 0.055
16,YHADPSLVSFLTGLGCPNCIEYFTSQGLQSIYHLQNLTIEDLGALDIPEQYRMTIWRGLQDLK [K46D],-0.138 ± 0.076
17,YHADPSLVSFLTGLGCPNCIEYFTSQGLQSIYHLQNLTIEDLGALEIPEQYRMTIWRGLQDLK [K46E],-0.127 ± 0.043
18,YHADPSLVSFLTGLGCPNCIEYFTSQGLQSIYHLQNLTIEDLGALFIPEQYRMTIWRGLQDLK [K46F],-0.142 ± 0.085
19,YHADPSLVSFLTGLGCPNCIEYFTSQGLQSIYHLQNLTIEDLGALGIPEQYRMTIWRGLQDLK [K46G],0.025 ± 0.027
20,YHADPSLVSFLTGLGCPNCIEYFTSQGLQSIYHLQNLTIEDLGALIIPEQYRMTIWRGLQDLK [K46I],-0.345 ± 0.084
21,YHADPSLVSFLTGLGCPNCIEYFTSQGLQSIYHLQNLTIEDLGALLIPEQYRMTIWRGLQDLK [K46L],-0.069 ± 0.032

row,Variant,abundance fitness
1,YHADPSLVSFLTGLGCPNCIEYFTSQGLQSIYHLQNLTIEDLGALMIPEQYRMTIWRGLQDLK [K46M],-0.155 ± 0.057
2,YHADPSLVSFLTGLGCPNCIEYFTSQGLQSIYHLQNLTIEDLGALNIPEQYRMTIWRGLQDLK [K46N],0.009 ± 0.057
3,YHADPSLVSFLTGLGCPNCIEYFTSQGLQSIYHLQNLTIEDLGALPIPEQYRMTIWRGLQDLK [K46P],0.01 ± 0.059
4,YHADPSLVSFLTGLGCPNCIEYFTSQGLQSIYHLQNLTIEDLGALRIPEQYRMTIWRGLQDLK [K46R],0.041 ± 0.03
5,YHADPSLVSFLTGLGCPNCIEYFTSQGLQSIYHLQNLTIEDLGALSIPEQYRMTIWRGLQDLK [K46S],-0.043 ± 0.033
6,YHADPSLVSFLTGLGCPNCIEYFTSQGLQSIYHLQNLTIEDLGALTIPEQYRMTIWRGLQDLK [K46T],-0.102 ± 0.048
7,YHADPSLVSFLTGLGCPNCIEYFTSQGLQSIYHLQNLTIEDLGALVIPEQYRMTIWRGLQDLK [K46V],-0.092 ± 0.034
8,YHADPSLVSFLTGLGCPNCIEYFTSQGLQSIYHLQNLTIEDLGALWIPEQYRMTIWRGLQDLK [K46W],-0.249 ± 0.037
9,YHADPSLVSFLTGLGCPNCIEYFTSQGLQSIYHLQNLTIEDLGALYIPEQYRMTIWRGLQDLK [K46Y],-0.301 ± 0.1
10,YHADPSLVSFLTGLGCPNCIEYFTSQGLQSIYHLQNLTIEDLGALKAPEQYRMTIWRGLQDLK [I47A],-0.768 ± 0.075
11,YHADPSLVSFLTGLGCPNCIEYFTSQGLQSIYHLQNLTIEDLGALKCPEQYRMTIWRGLQDLK [I47C],-0.171 ± 0.034
12,YHADPSLVSFLTGLGCPNCIEYFTSQGLQSIYHLQNLTIEDLGALKDPEQYRMTIWRGLQDLK [I47D],-0.477 ± 0.13
13,YHADPSLVSFLTGLGCPNCIEYFTSQGLQSIYHLQNLTIEDLGALKEPEQYRMTIWRGLQDLK [I47E],-1.06 ± 0.11
14,YHADPSLVSFLTGLGCPNCIEYFTSQGLQSIYHLQNLTIEDLGALKFPEQYRMTIWRGLQDLK [I47F],-0.263 ± 0.068
15,YHADPSLVSFLTGLGCPNCIEYFTSQGLQSIYHLQNLTIEDLGALKGPEQYRMTIWRGLQDLK [I47G],-0.913 ± 0.053
16,YHADPSLVSFLTGLGCPNCIEYFTSQGLQSIYHLQNLTIEDLGALKKPEQYRMTIWRGLQDLK [I47K],-0.929 ± 0.17
17,YHADPSLVSFLTGLGCPNCIEYFTSQGLQSIYHLQNLTIEDLGALKLPEQYRMTIWRGLQDLK [I47L],0.021 ± 0.033
18,YHADPSLVSFLTGLGCPNCIEYFTSQGLQSIYHLQNLTIEDLGALKNPEQYRMTIWRGLQDLK [I47N],-0.413 ± 0.15
19,YHADPSLVSFLTGLGCPNCIEYFTSQGLQSIYHLQNLTIEDLGALKPPEQYRMTIWRGLQDLK [I47P],-1.07 ± 0.17
20,YHADPSLVSFLTGLGCPNCIEYFTSQGLQSIYHLQNLTIEDLGALKQPEQYRMTIWRGLQDLK [I47Q],-0.985 ± 0.088
21,YHADPSLVSFLTGLGCPNCIEYFTSQGLQSIYHLQNLTIEDLGALKRPEQYRMTIWRGLQDLK [I47R],-0.962 ± 0.063
